# Laboratory results as given in publication PMC3458930.
# Key:
# caspase-3 = caspase-3 (UniProt P42574); test: co-immunoprecipitation, Flag-tagged αB-crystallin; details: reference: wild type; sites S45
# caspase-7 = caspase-7 (UniProt P55210); test: co-immunoprecipitation, Flag-tagged αB-crystallin; details: reference: wild type; sites S45
substance,measurement,setting,value
αB-crystallin (from UniProt P02511) S45A,binding against the reference,caspase-3,weaker
same,binding against the reference,caspase-7,weaker
